Measurements published in ChEMBL document CHEMBL1148676, “Fluorogenic ester substrates to assess proteolytic activity” (Bioorg Med Chem Lett, 2006).
The source made the active and inactive calls. The calls are words filed in the database; no cut-off is given here.

Assays:
[1] = biological target: Cathepsin B (Homo sapiens) (UniProt P07858); assay: (§1) Affinity to cathepsin B
[2] = tested on: CC[C@H](NC(=O)OC(C)(C)C)C(=O)Oc1ccc2c(c1)Oc1cc(OC)ccc1C21OC(=O)c2ccccc21; assay: as §1; settings: Homo sapiens
[3] = tested on: CC[C@H](NC(=O)OCC1c2ccccc2-c2ccccc21)C(=O)Oc1ccc2c(c1)Oc1cc(OC)ccc1C21OC(=O)c2ccccc21; assay: as §1; settings: Homo sapiens
[4] = tested on: COc1ccc2c(c1)Oc1cc(OC(=O)CNC(=O)OCC3c4ccccc4-c4ccccc43)ccc1C21OC(=O)c2ccccc21; assay: as §1; settings: Homo sapiens
[5] = tested on: COc1ccc2c(c1)Oc1cc(OC(=O)[C@H](C)NC(=O)OC(C)(C)C)ccc1C21OC(=O)c2ccccc21; assay: as §1; settings: Homo sapiens
[6] = tested on: COc1ccc2c(c1)Oc1cc(OC(=O)[C@H](C)NC(=O)OCC3c4ccccc4-c4ccccc43)ccc1C21OC(=O)c2ccccc21; assay: as §1; settings: Homo sapiens
[7] = tested on: COc1ccc2c(c1)Oc1cc(OC(=O)[C@H](CC(C)C)NC(=O)OC(C)(C)C)ccc1C21OC(=O)c2ccccc21; assay: as §1; settings: Homo sapiens

In the case of COc1ccc2c(c1)Oc1cc(OC(C)=O)ccc1C21OC(=O)c2ccccc21 (centres undefined), the Activity [1] was “inactive”.
COc1ccc2c(c1)Oc1cc(OS(=O)(=O)c3ccc(C)cc3)ccc1C21OC(=O)c2ccccc21 (centres undefined) was tested, and the Activity [1] was “inactive”.
In the case of COc1ccc2c(c1)Oc1cc(OS(=O)(=O)c3ccc([N+](=O)[O-])cc3)ccc1C21OC(=O)c2ccccc21 (centres undefined), the Activity [1] was “inactive”.
For “Cathepsin B (Homo sapiens) (from UniProt P07858)”, the Km [2] was 2.2 µM, the Km [3] was 7.2 µM and the Km [4] was 7.9 µM. It also gave a Km [5] of 4.5 µM, a Km [6] of 7.6 µM and a Km [7] of 2.7 µM.
